From patent publication US20230242902A1, “A HIGHLY ERROR-PRONE […] R[…] FOR TARGETED CONTINUOUS EVOLUTION IN VIVO” (The Regents of the University of California, priority 2017, published 2023) come the findings set out here.

B1: Y382A: TP-DNAP1 variant (protein)
chain: MDYKDKALNDLRNVYADFDSLPLDFRQILIKDRATLLQKEDVEKKILERQEDAKKYAEYLKQSEIPERISLPNIKRHKGVSISFEETSEDMVLEPRPFIFDGLNIRCFRRETIFSLKNKILNMVKESSSFKNVSRQSVSFMYFKIFNKGKVIASTKSVNIYEDKIDERLEDLCNNFDDVLKKIIDVTYGYESLFVSETYSYVIFYAKSIYFPQPRCVNNWGNNIPNILTFDSFKLFTANKNNVSCIKQCSRFLWQKDFNTLEEMIEYKNGNICIVTPQLHINDVRDIKSFNDIRLYSESPIKTFSVIDNTITYLFYFKEHLGVIFNITKSRHDRRVTKFSPLSKFSDVKNITVCFDIESYFDPEKESNQVNIPFICCASIIANKVIGNIVDFEGRDCVAQMIEYVVDICGELNISSVELIAHNGGGYDFHYILSSMYNPAAIKNILIRNNSFISFNFAHDGVKFSVKDSYSFLLCSLANASKAFLNEETFKKTDFPHHDLKTADDLYKVYKEWSSVNTEINHVVEKEKLLITSEHIVNFTKNDKSKTLIEWSKDYCRNDVLVLSKVWLEFKNAVEDIFNCELVDQTMTLAGLSYKLFQANMPFDVELRHPNKEDYFNMREALIGGRCISVNGIYKDVLCLDVKSLYPASMAFYDQPYGSFKRVSSRPKDELGIYYVRVTPNRNNKSNFFPIRSHNKITYNNFEESTYIAWYTNVDIDIGLSEGHNIEYIPFDSYGNIGYSWSKKGKIFEKYIKDVLYKLKIKYEKQNNKVKRNVIKIIMNSLWGKFAQKWVNFEYFIKSEDDIDFESEEAYKIWDTDFMLIKKIKESTYSSKPIQNGVFTLSWARYHMKSIWDAGAKEGAECIYSDTDSIFVHKEHFKKNAKFMLNGLKVPIIGSEVGQLELECEFDKLLCAGKKQYMGFYTYFQDGKPCIKEKKRFKGIPSNYIIPELYAHLLSGADKEAKIQFLKFRREWGSVKGYIENKTVKAT
B2: V385W: TP-DNAP1 variant (protein)
chain: MDYKDKALNDLRNVYADFDSLPLDFRQILIKDRATLLQKEDVEKKILERQEDAKKYAEYLKQSEIPERISLPNIKRHKGVSISFEETSEDMVLEPRPFIFDGLNIRCFRRETIFSLKNKILNMVKESSSFKNVSRQSVSFMYFKIFNKGKVIASTKSVNIYEDKIDERLEDLCNNFDDVLKKIIDVTYGYESLFVSETYSYVIFYAKSIYFPQPRCVNNWGNNIPNILTFDSFKLFTANKNNVSCIKQCSRFLWQKDFNTLEEMIEYKNGNICIVTPQLHINDVRDIKSFNDIRLYSESPIKTFSVIDNTITYLFYFKEHLGVIFNITKSRHDRRVTKFSPLSKFSDVKNITVCFDIESYFDPEKESNQVNIPFICCASIIYNKWIGNIVDFEGRDCVAQMIEYVVDICGELNISSVELIAHNGGGYDFHYILSSMYNPAAIKNILIRNNSFISFNFAHDGVKFSVKDSYSFLLCSLANASKAFLNEETFKKTDFPHHDLKTADDLYKVYKEWSSVNTEINHVVEKEKLLITSEHIVNFTKNDKSKTLIEWSKDYCRNDVLVLSKVWLEFKNAVEDIFNCELVDQTMTLAGLSYKLFQANMPFDVELRHPNKEDYFNMREALIGGRCISVNGIYKDVLCLDVKSLYPASMAFYDQPYGSFKRVSSRPKDELGIYYVRVTPNRNNKSNFFPIRSHNKITYNNFEESTYIAWYTNVDIDIGLSEGHNIEYIPFDSYGNIGYSWSKKGKIFEKYIKDVLYKLKIKYEKQNNKVKRNVIKIIMNSLWGKFAQKWVNFEYFIKSEDDIDFESEEAYKIWDTDFMLIKKIKESTYSSKPIQNGVFTLSWARYHMKSIWDAGAKEGAECIYSDTDSIFVHKEHFKKNAKFMLNGLKVPIIGSEVGQLELECEFDKLLCAGKKQYMGFYTYFQDGKPCIKEKKRFKGIPSNYIIPELYAHLLSGADKEAKIQFLKFRREWGSVKGYIENKTVKAT
B3: V406C: TP-DNAP1 variant (protein)
chain: MDYKDKALNDLRNVYADFDSLPLDFRQILIKDRATLLQKEDVEKKILERQEDAKKYAEYLKQSEIPERISLPNIKRHKGVSISFEETSEDMVLEPRPFIFDGLNIRCFRRETIFSLKNKILNMVKESSSFKNVSRQSVSFMYFKIFNKGKVIASTKSVNIYEDKIDERLEDLCNNFDDVLKKIIDVTYGYESLFVSETYSYVIFYAKSIYFPQPRCVNNWGNNIPNILTFDSFKLFTANKNNVSCIKQCSRFLWQKDFNTLEEMIEYKNGNICIVTPQLHINDVRDIKSFNDIRLYSESPIKTFSVIDNTITYLFYFKEHLGVIFNITKSRHDRRVTKFSPLSKFSDVKNITVCFDIESYFDPEKESNQVNIPFICCASIIYNKVIGNIVDFEGRDCVAQMIEYVCDICGELNISSVELIAHNGGGYDFHYILSSMYNPAAIKNILIRNNSFISFNFAHDGVKFSVKDSYSFLLCSLANASKAFLNEETFKKTDFPHHDLKTADDLYKVYKEWSSVNTEINHVVEKEKLLITSEHIVNFTKNDKSKTLIEWSKDYCRNDVLVLSKVWLEFKNAVEDIFNCELVDQTMTLAGLSYKLFQANMPFDVELRHPNKEDYFNMREALIGGRCISVNGIYKDVLCLDVKSLYPASMAFYDQPYGSFKRVSSRPKDELGIYYVRVTPNRNNKSNFFPIRSHNKITYNNFEESTYIAWYTNVDIDIGLSEGHNIEYIPFDSYGNIGYSWSKKGKIFEKYIKDVLYKLKIKYEKQNNKVKRNVIKIIMNSLWGKFAQKWVNFEYFIKSEDDIDFESEEAYKIWDTDFMLIKKIKESTYSSKPIQNGVFTLSWARYHMKSIWDAGAKEGAECIYSDTDSIFVHKEHFKKNAKFMLNGLKVPIIGSEVGQLELECEFDKLLCAGKKQYMGFYTYFQDGKPCIKEKKRFKGIPSNYIIPELYAHLLSGADKEAKIQFLKFRREWGSVKGYIENKTVKAT
B4: G387H: TP-DNAP1 variant (protein)
chain: MDYKDKALNDLRNVYADFDSLPLDFRQILIKDRATLLQKEDVEKKILERQEDAKKYAEYLKQSEIPERISLPNIKRHKGVSISFEETSEDMVLEPRPFIFDGLNIRCFRRETIFSLKNKILNMVKESSSFKNVSRQSVSFMYFKIFNKGKVIASTKSVNIYEDKIDERLEDLCNNFDDVLKKIIDVTYGYESLFVSETYSYVIFYAKSIYFPQPRCVNNWGNNIPNILTFDSFKLFTANKNNVSCIKQCSRFLWQKDFNTLEEMIEYKNGNICIVTPQLHINDVRDIKSFNDIRLYSESPIKTFSVIDNTITYLFYFKEHLGVIFNITKSRHDRRVTKFSPLSKFSDVKNITVCFDIESYFDPEKESNQVNIPFICCASIIYNKVIHNIVDFEGRDCVAQMIEYVVDICGELNISSVELIAHNGGGYDFHYILSSMYNPAAIKNILIRNNSFISFNFAHDGVKFSVKDSYSFLLCSLANASKAFLNEETFKKTDFPHHDLKTADDLYKVYKEWSSVNTEINHVVEKEKLLITSEHIVNFTKNDKSKTLIEWSKDYCRNDVLVLSKVWLEFKNAVEDIFNCELVDQTMTLAGLSYKLFQANMPFDVELRHPNKEDYFNMREALIGGRCISVNGIYKDVLCLDVKSLYPASMAFYDQPYGSFKRVSSRPKDELGIYYVRVTPNRNNKSNFFPIRSHNKITYNNFEESTYIAWYTNVDIDIGLSEGHNIEYIPFDSYGNIGYSWSKKGKIFEKYIKDVLYKLKIKYEKQNNKVKRNVIKIIMNSLWGKFAQKWVNFEYFIKSEDDIDFESEEAYKIWDTDFMLIKKIKESTYSSKPIQNGVFTLSWARYHMKSIWDAGAKEGAECIYSDTDSIFVHKEHFKKNAKFMLNGLKVPIIGSEVGQLELECEFDKLLCAGKKQYMGFYTYFQDGKPCIKEKKRFKGIPSNYIIPELYAHLLSGADKEAKIQFLKFRREWGSVKGYIENKTVKAT
B5: Y382V: TP-DNAP1 variant (protein)
chain: MDYKDKALNDLRNVYADFDSLPLDFRQILIKDRATLLQKEDVEKKILERQEDAKKYAEYLKQSEIPERISLPNIKRHKGVSISFEETSEDMVLEPRPFIFDGLNIRCFRRETIFSLKNKILNMVKESSSFKNVSRQSVSFMYFKIFNKGKVIASTKSVNIYEDKIDERLEDLCNNFDDVLKKIIDVTYGYESLFVSETYSYVIFYAKSIYFPQPRCVNNWGNNIPNILTFDSFKLFTANKNNVSCIKQCSRFLWQKDFNTLEEMIEYKNGNICIVTPQLHINDVRDIKSFNDIRLYSESPIKTFSVIDNTITYLFYFKEHLGVIFNITKSRHDRRVTKFSPLSKFSDVKNITVCFDIESYFDPEKESNQVNIPFICCASIIVNKVIGNIVDFEGRDCVAQMIEYVVDICGELNISSVELIAHNGGGYDFHYILSSMYNPAAIKNILIRNNSFISFNFAHDGVKFSVKDSYSFLLCSLANASKAFLNEETFKKTDFPHHDLKTADDLYKVYKEWSSVNTEINHVVEKEKLLITSEHIVNFTKNDKSKTLIEWSKDYCRNDVLVLSKVWLEFKNAVEDIFNCELVDQTMTLAGLSYKLFQANMPFDVELRHPNKEDYFNMREALIGGRCISVNGIYKDVLCLDVKSLYPASMAFYDQPYGSFKRVSSRPKDELGIYYVRVTPNRNNKSNFFPIRSHNKITYNNFEESTYIAWYTNVDIDIGLSEGHNIEYIPFDSYGNIGYSWSKKGKIFEKYIKDVLYKLKIKYEKQNNKVKRNVIKIIMNSLWGKFAQKWVNFEYFIKSEDDIDFESEEAYKIWDTDFMLIKKIKESTYSSKPIQNGVFTLSWARYHMKSIWDAGAKEGAECIYSDTDSIFVHKEHFKKNAKFMLNGLKVPIIGSEVGQLELECEFDKLLCAGKKQYMGFYTYFQDGKPCIKEKKRFKGIPSNYIIPELYAHLLSGADKEAKIQFLKFRREWGSVKGYIENKTVKAT
B6: R395P: TP-DNAP1 variant (protein)
chain: MDYKDKALNDLRNVYADFDSLPLDFRQILIKDRATLLQKEDVEKKILERQEDAKKYAEYLKQSEIPERISLPNIKRHKGVSISFEETSEDMVLEPRPFIFDGLNIRCFRRETIFSLKNKILNMVKESSSFKNVSRQSVSFMYFKIFNKGKVIASTKSVNIYEDKIDERLEDLCNNFDDVLKKIIDVTYGYESLFVSETYSYVIFYAKSIYFPQPRCVNNWGNNIPNILTFDSFKLFTANKNNVSCIKQCSRFLWQKDFNTLEEMIEYKNGNICIVTPQLHINDVRDIKSFNDIRLYSESPIKTFSVIDNTITYLFYFKEHLGVIFNITKSRHDRRVTKFSPLSKFSDVKNITVCFDIESYFDPEKESNQVNIPFICCASIIYNKVIGNIVDFEGPDCVAQMIEYVVDICGELNISSVELIAHNGGGYDFHYILSSMYNPAAIKNILIRNNSFISFNFAHDGVKFSVKDSYSFLLCSLANASKAFLNEETFKKTDFPHHDLKTADDLYKVYKEWSSVNTEINHVVEKEKLLITSEHIVNFTKNDKSKTLIEWSKDYCRNDVLVLSKVWLEFKNAVEDIFNCELVDQTMTLAGLSYKLFQANMPFDVELRHPNKEDYFNMREALIGGRCISVNGIYKDVLCLDVKSLYPASMAFYDQPYGSFKRVSSRPKDELGIYYVRVTPNRNNKSNFFPIRSHNKITYNNFEESTYIAWYTNVDIDIGLSEGHNIEYIPFDSYGNIGYSWSKKGKIFEKYIKDVLYKLKIKYEKQNNKVKRNVIKIIMNSLWGKFAQKWVNFEYFIKSEDDIDFESEEAYKIWDTDFMLIKKIKESTYSSKPIQNGVFTLSWARYHMKSIWDAGAKEGAECIYSDTDSIFVHKEHFKKNAKFMLNGLKVPIIGSEVGQLELECEFDKLLCAGKKQYMGFYTYFQDGKPCIKEKKRFKGIPSNYIIPELYAHLLSGADKEAKIQFLKFRREWGSVKGYIENKTVKAT

In the test the test system is p1. The test can be described thus: p1 copy number by p1-encoded mKate2 fluorescence. The format is cell-based, S. cerevisiae. Conditions: OR-Y24, measured in triplicate. In a few lines: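 Steps: transform TP-DNAP1 variant into OR-Y24; passage until w.t. p1 displaced; dilute 1:10,000 and grow to saturation in triplicate; measure p1-encoded mKate2 fluorescence; convert to copy number via linear qPCR-based calibration. Four high-copy variants were checked directly by qPCR.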
On to B1, for which the “Mean fold-increase over w.t. (p1 copy number)” value (shortened to “Mean fold-increase”) worked out at 1.6 fold.
Turning to B2, the “Mean fold-increase” value was found to be 1.41 fold.
With B3 the figure was 2.34 fold; with B4, 1.57 fold.
Regarding B5, the “Mean fold-increase” value was 1.62 fold.
Turning to B6, the “Mean fold-increase” value came out at 1.91 fold.
